Test results from the DeepSol protein solubility set.

Assay: soluble on expression in E. coli; label from the status in PepcDB or PDB records

Sequence | soluble on expression in E. coli
MKPFCTVMANGEDITRTLMDYVLSIEITDEAEDKSDRITIELDDRARECDNGFLDIPLIGTIISVTLGYEGGKNRDMGAYLIDEISVSSPPQSLSVTGRAASMNTSYRTPKSQSYHQQTLGNIIQEIAERNGYTPKVDPALAKIVVRHIDQTSESDMAFATRLAEDYDAVAKPVDGKLVLAKRGEGKAITGETLPVVVIHEKLCSSWDFKYSARDEAGAANGLATEAGDDQKAAADAREPEEVEEGEDVIHMDESDAPNLPKAETEAKTPENQEQDEEKKGGVLASYHDIRTGEKKEVKVGKAPFHELKYTYHNQSEAVAAIAAYRNKSSRGKSSFSCDIGGDPFVQAEAKLVQEPPFRPYIPAEWRIKSVKHKLDKTGGYTTKIDCELFDETQEDAAGNVANTTPDKDDTLDPNAPPNACDEGEGVIHMDEEDR | not soluble
MRGQNRRGYRNIEGRLSLSSHSSHSSPRQTHVTNLRPAEIKVVQDVVDGCYVATDDVLNLSNFSKNTEFVERDMLMCLTKTRVMSVVLQHIGYKYPRISGISFSNNRLCHLDHLSSLSSISKFLKFLDLSHNQISSGEELKKLGTIPVETVFFEGNPVCEKFVQCAEYANFIQKTFPKCSNLDGMEVEPKPDHNRIEQIIPFRNGYYGSDEVRTLVEEFIITYYKIYDGADGQQTRKQLLDAYDTNNSTFTHTVVCLWDPIKFVMYPDSESYRMYLRTSHNVLNQEYFAANRASRISHGAMDIVVALSRLPATIHLMDTFVVDVFLVSATLLGFTLHGTFRDGPSAIKPENTEEHDNYFTRTFMVAPRGEGKVAIVSDQLFISSMSKRRGDQYRMLVETATDIDQ | not soluble
MSTKPEKPIWMSQEDYDRQYGSITGDESSTVSKKDSKVTANAPGDGNGSLPVLQSSSILTSKVSDLPIEAESGFKIQKRRHERYDQEERLRKQRAQKLREEQLKRHEIEMTANRSINVDQIVREHYNERTIIANRAKRNLSPIIKLRNFNNAIKYMLIDKYTKPGDVVLELGCGKGGDLRKYGAAGISQFIGIDISNASIQEAHKRYRSMRNLDYQVVLITGDCFGESLGVAVEPFPDCRFPCDIVSTQFCLHYAFETEEKARRALLNVAKSLKIGGHFFGTIPDSEFIRYKLNKFPKEVEKPSWGNSIYKVTFENNSYQKNDYEFTSPYGQMYTYWLEDAIDNVPEYVVPFETLRSLADEYGLELVSQMPFNKFFVQEIPKWIERFSPKMREGLQRSDGRYGVEGDEKEAASYFYTMFAFRKVKQYIEPESVKPN | soluble
MTGTLLYTKNSALDRSEESGDLSPAKEFSIGPGFLKYVLRVRNEIAAAEYDMSVPTGFEADANCDYCFEQDTCMVVSGRLDQESKAGQLGEPLPEPERAYFERLYRAIEEERREVHAEYRKLWEQSAAERADDDRALVDLDPLGREPLDGGRWALSARRTSDAVSKIREGDRVLASDGHPTQGTAELATVRHLDDEIVVVADEPFELRRIDVYPSELGVDRQLTALHDAVLRGDPDRKDVLFGRREPSFVGDHRPIIDNNESQNEAVNRALAAEDFALIHGPPGTGKTYTLAQTVQALVARGDRVLLSAFTNRAVDNAIEALEAQGFTDVLRWGSESGVRDDMQSYRFDRTGDPRERAAALRDAQVVAATTAACGSRALKQQQFDVAVIDEAGQLTEPGTFLATNRADRFVLVGDHEQLPPVVRAENDLQTSLFEQLIDDYPDAAVMLDRQYRMSQRIQYFASREFYDGQLRPANAEVASQRLADLDGVDVSTLPSALRDAVSFVDPGGSADGNTNPTEADRVADIVSAYLDAGVDPDDIGVIAPFRAQVAELSRRIDEVTVDTVDRFQGSSKEVIIVSFVATGELSSPIFEDYRRVNVALTRAKKALVLVGDATALRSVPFYERMLEWAGLEHHHHHH | not soluble
GAPLKAVSAFAPPLHTQDFNLYSGEVHAHFTDYEAGMAFARQENKPVLLDFSGHGCVNCRKMENAVWIDPTVKSMLEKDYVLITLMVDEKKPLAEPLTIVFDGKEKTLRTVGDKWSYLQSHKFGANAQPFYVAIDHEGKPLSASYSYNEDVPLYVDFLKGGLQEFKKRKNK | not soluble
GMMVPHLTTALTGPLLTLEKRLLDNMPRIEHWFRSQWQEYGAPFYASVDLRNAGFKLAPVDTNLFPGGFNNLNPDFLPLCIQAAMVAVEKICPDARRLLLIPENHTRNTFYLRNVHALTHILRQAGLEVRIGSIAPEITAPTFLETHDGHSILLEPVRRKANRLELDNFDSCAILLNNDLSGGIPDILQGLEQSLIPPLHAGWATRRKSNHFTAYDRVVEEFAPLIDIDPWLLNPYFDTCGGLDFHARLGEEQLAEKVDSLLAKIRRKYAEYGVKQEPFVIVKADAGTYGMGIMTVKSADDVRDLNRKQRNKMSVVKEGLKVSEVILQEGVYTFEHLKDAVAEPVIYMMDHFVVGGFYRVHTSRGADENLNAPGMHFEPLTFETPCSTPDCAGAPDAAPNRFYAYGVVARLALLAATIELQETDPDLLDERT | soluble
MSLEKPKYKRIVLKLSGEALAGEQGNGINPTVIQSIAKQVKEIAELEVEVAVVVGGGNLWRGKTGSDLGMDRATADYMGMLATVMNSLALQDSLETLGIQSRVQTSIEMRQVAEPYIRRKAIRHLEKKRVVIFAAGTGNPYFSTDTTAALRAAEIEADVILMAKNNVDGVYNADPRKDESAVKYESLSYLDVLKDGLEVMDSTASSLCMDNDIPLIVFSIMEEGNIKRAVIGESIGTIVRGKEGHHHHHH | soluble
MRCPRCHHNNSRVIDSRQADDGRAIRRRRECENCSYRFTTFERIEAAPLLVIKKNGDREEFNRDKILRGLIRSAEKRPVAMEQMVQIVDNVENRVRSLGENEVSTTLIGEYVMEDLVNLDEIAYIRFASVYRQFKDMSVFLKELQDIVDKAKSSSPDSEN | not soluble
SAATMKKAAAEDVNVTFEDQQKINKFARNTSRITELKEEIEVKKKQLQNLEDACDDIMLADDDCLMIPYQIGDVFISHSQEETQEMLEEAKKNLQEEIDALESRVESIQRVLADLKVQLYAKFGSNINLEADES | soluble
MKRFLIITILALSVFSLALTLDDAYRLANITQRKLIMMFSSPTCYYCNLFKKEVFPKEDFQEILIPNFVFVELYATDEKTTLFAKEVLGEESVSYRDLFAGFGVRGTPTFFFFKGKEGLGYLPGYVDKDNFIKILKYVAQELKEDFQTYLKKDDPFVGEPLIIEIFKEDADFVLEKDENAVKVDTVPNEVRRDRIYVTDSPDVAKTLQEKGALRVLLAK | not soluble
MPTFTTHRQIAHSAREMFDLVADIECYPEFLPMCEALIVRSRKKCEEKTLLLADMTVGYKLVRETFTTQVFLQPKEKRIEVKYIDGPFKYLENRWAFHHTEKSNICNIEFFIDYEFKSKMLGLVMGSMFDIAFHKFTDAFERRAHRIYGSPVI | soluble
MGSDKIHHHHHHMPQIGYQWLSSKCGVVPVHPFAVQSEIGRARSTSTDGDIRREIYPEPYRPTASLTDNLTFAFRHEGIHLEFLARLYALPSVRKELEAWIAREPTGAYARRACFFYEWLMPAPLDAPGVSKGNYVDALNPEEFVVGASINNTRWRVRDNLPGNRDFCPVIRRVEAVQRAETYDLAAPLAELEADYGIDLILRSAVWLTVKESRASFLIEHEQDNEDRIRRFAAVMESECGQHANPFDAGTLNVLQRGILGQSALRYGIRRSPVYVGHVARYQPVVDYIAPPWQHIEVMLAGLTRFLERTAGRAPLVRAAAASFGFVYAHPMADGNGRISRFLINDILRRDGAVPAPIILPVSATITHSTRDRAAYDKVLERFSRPLMKHYADQYTFGKTEIAEDGVEYNLHFHAYEDALPAWRYPDLTAHVGYLADVIDATLAHEMRTEARFLQANDKARRAIKDFLEAPDNDLDGIIRSVRQNGNSISNNLRKRYPLLDERPELGAQIVEAVAEAFADDKSH | not soluble
GSYNKPSETVIPESVDGLQENLDVVVSLAERHYYNCDFKMCYKLTSVVMEKDPFHASCLPVHIGTLVELNKANELFYLSHKLVDLYPSNPVSWFAVGCYYLMVGHKNEHARRYLSKATTLEKTYGPAWIAYGHSFAVESEHDQAMAAYFTAAQLMKGCHLPMLYIGLEYGLTNNSKLAERFFSQALSIAPEDPFVMHEVGVVAFQNGEWKTAEKWFLDALEKIKAIGNEVTVDKWEPLLNNLGHVCRKLKKYAEALDYHRQALVLIPQNASTYSAIGYIHSLMGNFENAVDYFHTALGLRRDDTFSVTMLGHCIEMYIGDSEAYIGADIK | soluble
MGHHKAMPYADVAAFIIELRKREAVAATALEFTILTAARSGETLGAKWHEIDWKDKIWTVPAERMKAAREHRVPLSSRTITILKKLAEFGSDENSFVFPGQKPGKPLSVMAMDMVLRRMEVDVTVHGFRSSFRDWCGEVSNFPRDVAEAALAHVVGDKTERAYRRGDALEKRRKLMAAWEKFCIAEIKKNPLEHHHHHH | not soluble
